For the experiment, the target named is T1, myc3 タグ融合 PB1 サブユニット(1aa-81aa), expressed in 293T cells (influenza virus H1N1, UniProt P03431 1-81).
T1 construct: range 1-81
The experiment in a line: Western blot of 293T lysate (denatured protein).

The source of these data is patent publication JP2018150260A (dated 2018).

T1 sequence (P03431 1-81): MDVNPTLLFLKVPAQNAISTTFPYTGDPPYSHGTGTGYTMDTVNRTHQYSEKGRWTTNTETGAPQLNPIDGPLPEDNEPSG

B1: PA 11-9.4モノクローナル抗体 (antibody, V domains shown)
VH: AEFVKPGASVKLSCIASGFNIKDTYMYWVKQRPEQGLEWIGRIDPANGNTKYDPKFQGKATITTDTSSNTAYLQVSSLTSEDTAVYYCAYRYDYYFDYWGQGTTLTVSS
VL: not shown
notes: also called PA 11-9.4 抗体
Regarding B1, the binding result is reported as “no binding”.
